Source: publication PMC4521584, “MutS/MutL crystal structure reveals that the MutS sliding clamp loads MutL onto DNA” (eLife, 2015)

Molecular target: T1, WT MutS, full length (E. coli, UniProt P23909 1-853)
T1 construct: MutS, E. coli, wild type; also called MutS sliding clamp; source: mutS gene in vector pET-3D; purified as described previously
T1 sequence (looked up): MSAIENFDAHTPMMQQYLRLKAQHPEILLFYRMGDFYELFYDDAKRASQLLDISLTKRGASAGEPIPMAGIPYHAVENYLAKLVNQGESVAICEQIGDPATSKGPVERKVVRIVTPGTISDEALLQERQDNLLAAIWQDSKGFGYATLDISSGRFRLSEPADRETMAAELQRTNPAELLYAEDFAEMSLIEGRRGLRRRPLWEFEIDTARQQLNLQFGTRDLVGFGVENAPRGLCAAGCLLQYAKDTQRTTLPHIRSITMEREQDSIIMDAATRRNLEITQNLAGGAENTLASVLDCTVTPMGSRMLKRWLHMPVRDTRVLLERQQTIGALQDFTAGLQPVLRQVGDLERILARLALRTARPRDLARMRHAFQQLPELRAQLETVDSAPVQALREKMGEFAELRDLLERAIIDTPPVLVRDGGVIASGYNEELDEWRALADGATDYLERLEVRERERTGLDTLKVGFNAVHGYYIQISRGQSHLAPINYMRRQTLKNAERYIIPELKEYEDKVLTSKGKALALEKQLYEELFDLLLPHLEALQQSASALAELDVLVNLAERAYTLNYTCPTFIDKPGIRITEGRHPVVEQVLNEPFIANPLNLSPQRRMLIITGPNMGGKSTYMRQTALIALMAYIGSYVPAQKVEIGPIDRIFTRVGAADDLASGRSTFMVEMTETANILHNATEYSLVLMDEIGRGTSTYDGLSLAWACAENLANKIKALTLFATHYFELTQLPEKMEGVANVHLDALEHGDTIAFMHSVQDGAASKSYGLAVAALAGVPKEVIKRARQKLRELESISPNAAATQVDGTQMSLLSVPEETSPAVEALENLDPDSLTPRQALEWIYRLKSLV
Test: SPR; two-step: 200 nM MutS with 1 mM ATP trapped as sliding clamps on immobilised, end-blocked 100-bp G:T DNA, then MutL (varying concentrations, 1 mM ATP) injected 120 s; MutS-only signal subtracted; 25 mM Hepes pH 7.5, 150 mM KCl, 5 mM MgCl2, 1 mM DTT, 0.05% TWEEN-20, 20% glycerol; not strictly affinity curves
Conditions: both partners purified

B1: WT His6-MutL, full length (natural protein, E. coli, UniProt P23367 1-615, looked up)
chain: MPIQVLPPQLANQIAAGEVVERPASVVKELVENSLDAGATRIDIDIERGGAKLIRIRDNGCGIKKDELALALARHATSKIASLDDLEAIISLGFRGEALASISSVSRLTLTSRTAEQQEAWQAYAEGRDMNVTVKPAAHPVGTTLEVLDLFYNTPARRKFLRTEKTEFNHIDEIIRRIALARFDVTINLSHNGKIVRQYRAVPEGGQKERRLGAICGTAFLEQALAIEWQHGDLTLRGWVADPNHTTPALAEIQYCYVNGRMMRDRLINHAIRQACEDKLGADQQPAFVLYLEIDPHQVDVNVHPAKHEVRFHQSRLVHDFIYQGVLSVLQQQLETPLPLDDEPQPAPRSIPENRVAAGRNHFAEPAAREPVAPRYTPAPASGSRPAAPWPNAQPGYQKQQGEVYRQLLQTPAPMQKLKAPEPQEPALAANSQSFGRVLTIVHSDCALLERDGNISLLSLPVAERWLRQAQLTPGEAPVCAQPLLIPLRLKVSAEEKSALEKAQSALAELGIDFQSDAQHVTIRAVPLPLRQQNLQILIPELIGYLAKQSVFEPGNIAQWIARNLMSEHAQWSMAQAITLLADVERLCPQLVKTPPGGLLQSVDLHPAIKALKDE
notes: MutL, E. coli, wild type; also called WT MutL; WT His-MutL; source: mutL gene in plasmid pTX418; purified as described previously
binding result: binds
